Reference: patent publication US5780025A, “Compositions and methods for the synthesis and assay of enkephalinase” (Genentech, Inc., priority 1993, dated 1998)

Biological target: T1, dansyl-Gly-Trp-Gly or dansyl-Gly-Tyr-Gly (Rattus norvegicus, UniProt P07861)
T1 construct: made in house; host or cells: human embryonic kidney (293) cells (pCISrENK); also rabbit reticulocyte lysate in vitro translation (prENKsense)
T1 sequence (P07861 1-750): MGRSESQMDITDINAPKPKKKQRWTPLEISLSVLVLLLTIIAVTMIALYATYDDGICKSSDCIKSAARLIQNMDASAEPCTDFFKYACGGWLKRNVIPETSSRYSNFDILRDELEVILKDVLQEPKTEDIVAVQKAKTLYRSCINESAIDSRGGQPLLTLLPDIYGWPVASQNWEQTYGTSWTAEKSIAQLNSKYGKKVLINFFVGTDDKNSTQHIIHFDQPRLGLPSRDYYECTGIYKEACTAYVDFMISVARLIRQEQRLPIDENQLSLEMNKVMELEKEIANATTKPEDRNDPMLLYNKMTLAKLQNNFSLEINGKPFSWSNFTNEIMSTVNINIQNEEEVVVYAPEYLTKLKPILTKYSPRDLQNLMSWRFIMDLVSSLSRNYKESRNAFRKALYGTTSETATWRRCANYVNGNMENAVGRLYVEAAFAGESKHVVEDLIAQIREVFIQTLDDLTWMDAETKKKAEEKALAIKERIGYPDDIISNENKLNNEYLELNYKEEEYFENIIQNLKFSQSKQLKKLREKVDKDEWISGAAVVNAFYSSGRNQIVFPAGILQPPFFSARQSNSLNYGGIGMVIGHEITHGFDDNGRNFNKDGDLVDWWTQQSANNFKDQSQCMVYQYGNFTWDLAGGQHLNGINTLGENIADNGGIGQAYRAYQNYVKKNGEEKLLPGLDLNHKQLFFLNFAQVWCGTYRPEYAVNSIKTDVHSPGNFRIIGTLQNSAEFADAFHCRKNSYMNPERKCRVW
Assay: Enkephalinase activity of expressed rat enkephalinase material
Format: biochemical
Conditions: rat enkephalinase cDNA expression products
Source text: An assay using novel fluorescent substrates for enkephalinase was developed to assess whether enkephalinase is expressed. This assay is based on the disappearance of energy transfer between a tryptophan or a tyrosine residue and the 5-dimethylaminonaphthalene-1-sulfonyl group (dansyl) in the substrates dansyl-Gly-Trp-Gly or dansyl-Gly-Tyr-Gly upon hydrolysis of their Gly-Trp or Gly-Tyr amide bond by enkephalinase. No significant difference in Km or kcat values were found for dansyl-Gly-Trp-Gly and dansyl-Gly-Tyr-Gly as the active site of enkephalinase appears to accommodate tryptophan residues similarly to tyrosine. The tryptophan and tyrosine containing substrates can be used for continuous recording of enkephalinase activity. […]
Fluorescence measurements were made using a Perkin Elmer, model 650-10S spectrofluorometer, equipped with a temperature controlled cell-holder, maintained at 37° C. […] The 600 μl mixture was transferred into a quartz cuvette, and fluorescence measured. […] The fluorescence in the incubation media could thus be related to the amounts of hydrolyzed substrates. […] Ten μl of purified rat kidney enkephalinase was added and the increase in tryptophan or tyrosine fluorescence was continuously monitored (excitation=280 nm, emission=360 nm for tryptophan, excitation 277, emission 315 for tyrosine). […] Under these conditions, tryptophan fluorescence was stable for over 2 hr.

B1: pCISrENK: rat enkephalinase expressed from plasmid pCISrENK in human embryonic kidney (293) cells and purified (protein, UniProt P07861 2-750, looked up)
Neprilysin: GRSESQMDITDINAPKPKKKQRWTPLEISLSVLVLLLTIIAVTMIALYATYDDGICKSSDCIKSAARLIQNMDASAEPCTDFFKYACGGWLKRNVIPETSSRYSNFDILRDELEVILKDVLQEPKTEDIVAVQKAKTLYRSCINESAIDSRGGQPLLTLLPDIYGWPVASQNWEQTYGTSWTAEKSIAQLNSKYGKKVLINFFVGTDDKNSTQHIIHFDQPRLGLPSRDYYECTGIYKEACTAYVDFMISVARLIRQEQRLPIDENQLSLEMNKVMELEKEIANATTKPEDRNDPMLLYNKMTLAKLQNNFSLEINGKPFSWSNFTNEIMSTVNINIQNEEEVVVYAPEYLTKLKPILTKYSPRDLQNLMSWRFIMDLVSSLSRNYKESRNAFRKALYGTTSETATWRRCANYVNGNMENAVGRLYVEAAFAGESKHVVEDLIAQIREVFIQTLDDLTWMDAETKKKAEEKALAIKERIGYPDDIISNENKLNNEYLELNYKEEEYFENIIQNLKFSQSKQLKKLREKVDKDEWISGAAVVNAFYSSGRNQIVFPAGILQPPFFSARQSNSLNYGGIGMVIGHEITHGFDDNGRNFNKDGDLVDWWTQQSANNFKDQSQCMVYQYGNFTWDLAGGQHLNGINTLGENIADNGGIGQAYRAYQNYVKKNGEEKLLPGLDLNHKQLFFLNFAQVWCGTYRPEYAVNSIKTDVHSPGNFRIIGTLQNSAEFADAFHCRKNSYMNPERKCRVW
modifications: recombinant, expressed in 293 cells
notes: rat enkephalinase expressed from plasmid pCISrENK in human embryonic kidney (293) cells and purified
enkephalinase activity of expressed material: biologically active
